Positions count from the first letter of the chain named. Names and notes keep the numbering of the source.
B1: 16H7 variant with light chain substitution P54R (antibody, V domains shown)
VH: not shown
VL: SYVLTQPPSVSVAPGQTARITCGGNNIGSESVHWYQQKPGQAPVLVVYDDSDRRSGIPERFSGSNSGNTATLTISRVEAGDEADYYCQVWDGNSDHVVFGGGTKLTVLG
B2: 16H7 light chain variant S31R (antibody, human IgG4 S228P, lambda, V domains shown)
VH: not shown
VL: B1 VL with S31R, R54P
B3: 16H7 variant with light chain substitution D52H (antibody, V domains shown)
VH: not shown
VL: B1 VL with D52H, R54P
B4: 16H7 variant with light chain substitution D52F (antibody, V domains shown)
VH: not shown
VL: B1 VL with D52F, R54P
B5: 16H7 light chain variant S31E (antibody, V domains shown)
VH: not shown
VL: B1 VL with S31E, R54P
notes: copies: 2 + 2
B6: 16H7 light chain variant S29L (antibody, V domains shown)
VH: not shown
VL: B1 VL with S29L, R54P
notes: copies: 2 + 2
B7: 16H7 variant with light chain substitution D52E (antibody, V domains shown)
VH: not shown
VL: B1 VL with D52E, R54P
B8: 16H7 light chain variant S31C (antibody, human IgG4 S228P, lambda, V domains shown)
VH: not shown
VL: B1 VL with S31C, R54P
B9: 16H7 light chain variant S29M (antibody, human IgG4 S228P, lambda, V domains shown)
VH: not shown
VL: B1 VL with S29M, R54P
B10: 16H7 light chain variant S29T (antibody, human IgG4 S228P, lambda, V domains shown)
VH: not shown
VL: B1 VL with S29T, R54P
B11: 16H7 variant with light chain substitution D52A (antibody, V domains shown)
VH: not shown
VL: B1 VL with D52A, R54P
B12: 16H7 light chain variant S31V (antibody, human IgG4 S228P, lambda, V domains shown)
VH: not shown
VL: B1 VL with S31V, R54P
B13: 16H7 light chain variant S31P (antibody, V domains shown)
VH: not shown
VL: B1 VL with S31P, R54P
notes: copies: 2 + 2
B14: 16H7 light chain variant S31G (antibody, human IgG4 S228P, lambda, V domains shown)
VH: not shown
VL: B1 VL with S31G, R54P
B15: 16H7 light chain variant S29H (antibody, V domains shown)
VH: not shown
VL: B1 VL with S29H, R54P
notes: copies: 2 + 2
B16: 16H7 light chain variant S31I (antibody, human IgG4 S228P, lambda, V domains shown)
VH: not shown
VL: B1 VL with S31I, R54P
B17: 16H7 light chain variant S29G (antibody, V domains shown)
VH: not shown
VL: B1 VL with S29G, R54P
notes: copies: 2 + 2
B18: 16H7 light chain variant S29Q (antibody, human IgG4 S228P, lambda, V domains shown)
VH: not shown
VL: B1 VL with S29Q, R54P
B19: 16H7 light chain variant S29R (antibody, V domains shown)
VH: not shown
VL: B1 VL with S29R, R54P
notes: copies: 2 + 2
B20: 16H7 light chain variant S29K (antibody, human IgG4 S228P, lambda, V domains shown)
VH: not shown
VL: B1 VL with S29K, R54P
B21: 16H7 light chain variant S31T (antibody, V domains shown)
VH: not shown
VL: B1 VL with S31T, R54P
notes: copies: 2 + 2
B22: 16H7 light chain variant S29I (antibody, human IgG4 S228P, lambda, V domains shown)
VH: not shown
VL: B1 VL with S29I, R54P
B23: 16H7 light chain variant S29P (antibody, human IgG4 S228P, lambda, V domains shown)
VH: not shown
VL: B1 VL with S29P, R54P
B24: 16H7 light chain variant S31M (antibody, human IgG4 S228P, lambda, V domains shown)
VH: not shown
VL: B1 VL with S31M, R54P
B25: 16H7 variant with light chain substitution D52I (antibody, V domains shown)
VH: not shown
VL: B1 VL with D52I, R54P
B26: 16H7 variant with light chain substitution D52G (antibody, V domains shown)
VH: not shown
VL: B1 VL with D52G, R54P
B27: 16H7 light chain variant S31A (antibody, V domains shown)
VH: not shown
VL: B1 VL with S31A, R54P
notes: copies: 2 + 2
B28: 16H7 light chain variant S31W (antibody, human IgG4 S228P, lambda, V domains shown)
VH: not shown
VL: B1 VL with S31W, R54P
B29: 16H7 light chain variant S29V (antibody, human IgG4 S228P, lambda, V domains shown)
VH: not shown
VL: B1 VL with S29V, R54P
B30: 16H7 light chain variant S31D (antibody, human IgG4 S228P, lambda, V domains shown)
VH: not shown
VL: B1 VL with S31D, R54P

Legend:
[1] = target: human FGFR1c/KLB receptor complex on iLite FGF21 Assay Ready Cells (human, UniProt P11362 22-822; Q86Z14 1-1044); assay: cell-based or functional assay
[2] = target: T1, human beta-Klotho (KLB) (human, UniProt Q86Z14 53-997); assay: BLI off-rate screening, mAb captured, KLB analyte;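 also: Off-rate taken from the dissociation phase, biosensors held in D-PBS with 0.1% BSA over 1800 s, antibody supernatants diluted to 25 µg/mL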
T1 construct: bought protein, used as analyte in the off-rate screening; also called human KLB; β-Klotho
T1 sequence (looked up): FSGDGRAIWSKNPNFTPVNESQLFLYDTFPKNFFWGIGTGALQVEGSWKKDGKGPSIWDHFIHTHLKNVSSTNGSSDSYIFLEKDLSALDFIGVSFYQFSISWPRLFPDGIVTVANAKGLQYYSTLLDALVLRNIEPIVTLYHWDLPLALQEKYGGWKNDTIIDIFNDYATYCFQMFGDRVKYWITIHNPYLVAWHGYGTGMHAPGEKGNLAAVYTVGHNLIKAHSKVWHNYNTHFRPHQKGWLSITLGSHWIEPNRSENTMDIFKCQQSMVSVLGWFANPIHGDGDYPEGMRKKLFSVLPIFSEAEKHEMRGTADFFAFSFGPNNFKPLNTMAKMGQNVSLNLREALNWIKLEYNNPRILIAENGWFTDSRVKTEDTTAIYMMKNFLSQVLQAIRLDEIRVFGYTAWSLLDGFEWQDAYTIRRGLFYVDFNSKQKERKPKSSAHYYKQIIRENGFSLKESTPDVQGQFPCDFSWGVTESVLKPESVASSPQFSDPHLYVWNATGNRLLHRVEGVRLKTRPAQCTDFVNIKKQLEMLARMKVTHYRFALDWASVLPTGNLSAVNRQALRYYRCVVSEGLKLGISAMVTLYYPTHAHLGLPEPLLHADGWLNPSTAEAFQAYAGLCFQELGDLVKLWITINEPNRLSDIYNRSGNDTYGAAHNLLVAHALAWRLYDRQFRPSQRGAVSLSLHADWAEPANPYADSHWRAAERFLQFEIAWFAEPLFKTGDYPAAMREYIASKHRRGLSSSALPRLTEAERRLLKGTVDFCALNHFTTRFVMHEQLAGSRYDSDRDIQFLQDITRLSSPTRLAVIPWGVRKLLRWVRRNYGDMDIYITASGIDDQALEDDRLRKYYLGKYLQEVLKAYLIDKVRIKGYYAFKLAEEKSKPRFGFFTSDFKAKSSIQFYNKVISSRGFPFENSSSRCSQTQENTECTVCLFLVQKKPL

[3] = target: cell surface receptor composed of FGFR1c and co-receptor beta-Klotho (KLB) (human, UniProt P11362 22-822; Q86Z14 1-1044); assay: cell-based or functional assay
[4] = target: T2, human beta-Klotho (KLB) (human, UniProt Q86Z14 53-997); assay: BLI off-rate screen, supernatant;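 also: expression supernatants tested at 25 µg/mL, dissociation followed for 1800 s in D-PBS with 0.1% BSA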
T2 construct: Bought soluble protein; also called human KLB; ß-Klotho
T2 sequence (looked up): T1 sequence (looked up)
For Mean E max (%) in this document: reference of the scale not given here.
For Mean E max, Luciferase reporter gene assay in this document: reference of the scale not given here.

Chain of cell surface receptor composed of FGFR1c and co-receptor beta-Klotho (KLB) (P11362 22-822, chain 1 of 2): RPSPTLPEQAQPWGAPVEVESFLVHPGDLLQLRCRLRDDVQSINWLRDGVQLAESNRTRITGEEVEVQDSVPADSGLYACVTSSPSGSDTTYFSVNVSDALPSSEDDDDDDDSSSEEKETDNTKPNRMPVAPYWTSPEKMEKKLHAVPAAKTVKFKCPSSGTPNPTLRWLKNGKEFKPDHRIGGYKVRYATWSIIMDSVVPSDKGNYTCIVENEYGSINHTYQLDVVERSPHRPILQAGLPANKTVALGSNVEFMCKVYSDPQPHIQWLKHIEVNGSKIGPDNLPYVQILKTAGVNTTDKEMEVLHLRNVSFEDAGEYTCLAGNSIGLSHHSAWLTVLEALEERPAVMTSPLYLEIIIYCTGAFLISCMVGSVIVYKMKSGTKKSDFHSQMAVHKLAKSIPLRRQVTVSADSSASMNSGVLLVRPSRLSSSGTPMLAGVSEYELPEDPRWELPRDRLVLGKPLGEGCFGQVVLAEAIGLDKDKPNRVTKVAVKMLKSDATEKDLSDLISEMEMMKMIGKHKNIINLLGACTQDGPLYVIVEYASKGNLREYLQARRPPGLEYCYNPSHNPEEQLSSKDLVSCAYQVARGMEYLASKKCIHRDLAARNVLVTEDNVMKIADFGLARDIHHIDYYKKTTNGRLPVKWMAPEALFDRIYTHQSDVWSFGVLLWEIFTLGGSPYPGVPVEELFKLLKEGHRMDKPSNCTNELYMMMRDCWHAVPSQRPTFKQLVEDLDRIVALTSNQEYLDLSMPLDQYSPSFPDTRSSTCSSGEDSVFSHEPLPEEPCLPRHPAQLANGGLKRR
Chain of cell surface receptor composed of FGFR1c and co-receptor beta-Klotho (KLB) (Q86Z14 whole entry, chain 2 of 2): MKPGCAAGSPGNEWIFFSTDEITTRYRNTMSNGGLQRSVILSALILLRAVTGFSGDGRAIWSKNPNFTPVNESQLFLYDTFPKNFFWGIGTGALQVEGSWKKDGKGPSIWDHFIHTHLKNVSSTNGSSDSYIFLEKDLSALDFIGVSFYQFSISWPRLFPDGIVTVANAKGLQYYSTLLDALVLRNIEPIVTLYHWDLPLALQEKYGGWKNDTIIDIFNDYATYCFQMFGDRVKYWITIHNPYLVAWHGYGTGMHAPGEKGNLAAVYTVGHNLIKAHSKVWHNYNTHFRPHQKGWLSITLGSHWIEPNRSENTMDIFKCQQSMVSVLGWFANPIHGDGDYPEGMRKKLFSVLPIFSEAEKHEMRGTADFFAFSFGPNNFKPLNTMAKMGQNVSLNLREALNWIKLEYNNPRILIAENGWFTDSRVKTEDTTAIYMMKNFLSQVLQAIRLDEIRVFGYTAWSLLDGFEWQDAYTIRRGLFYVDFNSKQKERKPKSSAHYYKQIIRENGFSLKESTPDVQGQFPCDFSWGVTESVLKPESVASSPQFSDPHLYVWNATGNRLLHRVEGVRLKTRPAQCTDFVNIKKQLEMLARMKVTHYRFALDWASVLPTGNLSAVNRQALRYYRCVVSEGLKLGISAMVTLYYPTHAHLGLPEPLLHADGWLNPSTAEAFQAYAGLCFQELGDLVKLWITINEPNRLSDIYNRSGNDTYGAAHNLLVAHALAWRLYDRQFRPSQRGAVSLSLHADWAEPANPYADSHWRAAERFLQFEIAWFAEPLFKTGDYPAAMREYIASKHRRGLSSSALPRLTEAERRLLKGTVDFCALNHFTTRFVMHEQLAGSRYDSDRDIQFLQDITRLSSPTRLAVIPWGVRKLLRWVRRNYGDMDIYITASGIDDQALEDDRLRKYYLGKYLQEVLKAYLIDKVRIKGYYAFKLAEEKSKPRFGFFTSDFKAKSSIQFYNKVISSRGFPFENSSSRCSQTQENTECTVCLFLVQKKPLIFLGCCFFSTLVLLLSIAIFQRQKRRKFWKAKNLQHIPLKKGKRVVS
Chain of human FGFR1c/KLB receptor complex on iLite FGF21 Assay Ready Cells (P11362 22-822, chain 1 of 2): as the sequence (P11362 22-822, chain 1 of 2) above
Chain of human FGFR1c/KLB receptor complex on iLite FGF21 Assay Ready Cells (Q86Z14 whole entry, chain 2 of 2): as the sequence (Q86Z14 whole entry, chain 2 of 2) above

Binder | Mean E max (%) [1] [%] | Mean EC50 [1] [nM] | koff [2] [s⁻¹] | Mean E max, Luciferase reporter gene assay [3] [%] | Mean EC50, Luciferase reporter gene assay [3] [nM] | koff [4] [s⁻¹]
B1 | 104 | 0.111 | 0.00011 | – | – | –
B2 | – | – | – | 102 | 0.166 | 4.2e-05
B3 | 97 | 0.109 | 3.6e-05 | – | – | –
B4 | 102 | 0.105 | 7.9e-06 | – | – | –
B5 | – | – | – | 98 | 0.111 | 0.00031
B6 | – | – | – | 100 | 0.108 | 1.1e-05
B7 | 123 | 0.114 | 1e-07 | – | – | –
B8 | – | – | – | 100 | 0.128 | 0.00017
B9 | – | – | – | 106 | 0.133 | 2.3e-05
B10 | – | – | – | 102 | 0.096 | 2.2e-05
B11 | 101 | 0.163 | 4.8e-05 | – | – | –
B12 | – | – | – | 100 | 0.106 | 6.6e-05
B13 | – | – | – | 103 | 0.104 | 6.6e-05
B14 | – | – | – | 109 | 0.111 | 5.5e-05
B15 | – | – | – | 100 | 0.119 | 4.9e-05
B16 | – | – | – | 93 | 0.089 | 0.00015
B17 | – | – | – | 98 | 0.09 | 3.5e-05
B18 | – | – | – | 102 | 0.114 | 2.2e-05
B19 | – | – | – | 105 | 0.184 | 6.7e-06
B20 | – | – | – | 96 | 0.146 | 1.5e-05
B21 | – | – | – | 101 | 0.108 | 0.00011
B22 | – | – | – | 107 | 0.14 | 3e-05
B23 | – | – | – | 105 | 0.174 | 5.2e-05
B24 | – | – | – | 97 | 0.151 | 0.0003
B25 | 110 | 0.14 | 2.8e-05 | – | – | –
B26 | 109 | 0.125 | 3.7e-05 | – | – | –
B27 | – | – | – | 100 | 0.099 | 5.8e-05
B28 | – | – | – | 103 | 0.178 | 0.00034
B29 | – | – | – | 107 | 0.109 | 1.3e-05
B30 | – | – | – | 99 | 0.077 | 0.00019
